Columns and labels:
MS2 coat protein [1] = test: apparent KD of MS2 coat protein, switch OFF state (with FMN for OFF switches, without FMN for ON switches); designed switch direction (-1 OFF switch, 1 ON switch): -1; higher = weaker reporter binding; settings: FMN input: 0 or 200 uM; Eterna round: R93 (includes R88 designs)
Method in brief: (§1)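 Illumina sequencing clusters served as templates for on-chip transcription of the designed RNA switches. SNAP-549-labelled MS2 coat protein was then titrated in twofold steps from 0.7 or 1.5 nM to 3 µM, allowing 0.8–1.5 h per step at first and 10–20 min per step later. The buffer held 100 mM Tris-HCl pH 7.5, 80 mM KCl and 4 mM MgCl2, without or with constant ligand. Apparent KD is the median per design of normalised cluster binding-curve fits.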

MS2 coat protein [2] = test: apparent KD of MS2 coat protein, switch ON state; designed switch direction (-1 OFF switch, 1 ON switch): -1; higher = weaker reporter binding; settings: FMN input: 0 or 200 uM; Eterna round: R93 (includes R88 designs)
Method in brief: as §1

Sequence	apparent KD of MS2 coat protein (MS2 coat protein [1])	apparent KD of MS2 coat protein (MS2 coat protein [2])
CUCUAGUCAGGAUAUGCAUGAAAUGAAGUGAAAGAAAAGAAGCAGAAGGGACAUGAGGAUCACCCAUGUUAGAA [EteRNA is fun!]	38.3 nM	29.6 nM
CUCUAGUGAGGAUAUCGAAGAAAAGAAGAGAAAGAAAAGAACGAGAAGGCACAUGAGGAUCACCCAUGUAAGAA [EteRNA is fun!]	49 nM	23.6 nM
CUCUAGUUAGGAUAUCCAAGAAAAGAAAAGAAAGAAAAGAAGGAGAAGGAACAUGAGGAUCACCCAUGUAAGAA [EteRNA is fun!]	29.4 nM	27.8 nM
CUCUAGUUAGGAUAUGCAAGAAAAGAAGAGAAAGAAAAGAAGCAGAAGGAACAUGAGGAUCACCCAUGUAAGAA [EteRNA is fun!]	20.4 nM	22.7 nM
CUCUUGUCAGGAUAUCAAAGAAAAGAAAAGAAAGAAAAGAAUGAGAAGGGACAUGAGGAUCACCCAUGUAAGAA [EteRNA is fun!]	34.8 nM	32.1 nM
CUCUUGUGAGGAUAUCCAAGAAAAGAAAAGAAAGAAAAGAAGGAGAAGGCACAUGAGGAUCACCCAUGUAAGAA [EteRNA is fun!]	38.9 nM	38.6 nM
CUCUUGUGAGGAUAUCUAAGAAAAGAAGAGAAAGAAAAGAAAGAGAAGGCACAUGAGGAUCACCCAUGUAAGAA [EteRNA is fun!]	56.1 nM	29 nM
CUCUUGUGAGGAUAUUCAAGAAAAGAAGAGAAAGAAAAGAAGAAGAAGGCACAUGAGGAUCACCCAUGUAAGAA [EteRNA is fun!]	30.8 nM	25 nM
CUUAUGUGAGGAUAUGGUGUUGGCCACAGGGAAAAGAUCCUCCAGAAGGCACAUGAGGAUCACCCAUGUAGUGA [Jolly's Folly 29 - Jieux - Exclusion 4]	160 nM	69 nM
GAAAAACAUGAGGAUCACCCAUGUAAGGAUAUGCUAAAAAACGCAAAAAAAGCGAAUAGCAGAAGGUACAAAAG [Mat - Exclusion 1 - Eli mod - D82]	78.1 nM	22.3 nM
GAAAAACAUGAGGAUCACCCAUGUCAGGAUAUACAAAAUAAAAUAAAAAUAAAAUAAAGUAGAAGGGACAAAAG [Mat - Same state - Mayanna Mod - D107]	49 nM	36.7 nM
GAAAAACAUGAGGAUCACCCAUGUCAGGAUAUCGAAAAAAAUAAAAAAGAAAAGAAAACGAGAAGGGACAAAAG [Mat - Same state - Mayanna Mod - D112]	47.1 nM	31.6 nM
GAAAAACAUGAGGAUCACCCAUGUGAGGAUAUACGAAAGUAGAAGGCACUAAAAGAAAAGAGAAGGAGAAAAGA [Meechl Ex1 R2 m2]	38.8 nM	19.9 nM
GAAAAGCGAGGAUAUACAGAAAAAAAAACAAAAAAAGAAAAACAUGAGGAUCACCCAUGUAGAAGGCGCAAAAA [V1]	49.4 nM	25.9 nM
GAAAAGGAAGGAUAUACAAAGGGACCUUAUAAAAGAAGAAGACAUGAGGAUCACCCAUGUAGAAGGUCCAGAUA [Diusanatra]	19.6 nM	19.5 nM
GAAAAGUCAGGAUAUACAGAUAAAAAAACGAAAAAAAAUCUGUAGAAGGGACAUGAGGAUCACCCAUGUAAAAG [Mat - Exclusion 4 - Mayanna - D101]	33.2 nM	47.3 nM
GAAAAGUCAGGAUAUGCAGAUAAAAAAACGAAAAAAAAUCUGCAGAAGGGACAUGAGGAUCACCCAUGUAAAAA [Mat - Exclusion 4 - Mayanna - D109]	45.7 nM	45.6 nM
GAAAAGUGAGGAUAUGUCAAAAGUCACAAAAGUGACAAAAGACAGAAGGCACAUGAGGAUCACCCAUGUGGAAA [Mat - Exaclusion 4 - Eli mod - D51]	38.4 nM	30.9 nM
GAAAAUGGAGGAUAUACGUACAUGUCAAAAGACGUGAAGGGACAUGAGGAUCACCCAUGUAGAAGGCUAAAAAG [Mat - Exclusion 2 - JL mod - D96]	15.4 nM	101 nM
GAAACACAUGAGGAUCACCCAUGUCAGGAUAUGUAGAUAAAAAGAAAAUAAAAUAAAAACAGAAGGGACAAAAG [Mat - Same state - Mayanna Mod - D103]	76.3 nM	64.4 nM
GAAACUAGAGGAUAUACGAACAUGUCAAAAGACGUGAAGGGACAUGAGGAUCACCCAUGUAGAAGGCUAGAAAG [Mat - Exclusion 2 - JL mod - D100]	35.1 nM	39.5 nM
GAAACUAGAGGAUAUACGUACAUGUCAAAAGACGUGAAGGGACAUGAGGAUCACCCAUGUAGAAGGCUAGAAAG [Mat - Exclusion 2 - JL mod - D98]	54.2 nM	47.8 nM

Reference: the supplement of paper PMC9170038
